Test results: the supplement of paper PMC9112550, “Optimization of the antimicrobial peptide Bac7 by deep mutational scanning” (BMC Biology, 2022)

Tested on: Escherichia coli TOP10
Experiment: shrunken log2 fold change of peptide-encoding DNA abundance (4.5 h post-induction vs induction); higher = less antimicrobial activity (less host growth inhibition)
Settings: time post-induction: 4.5 h; library: site-saturation at positions 5, 18, 19, 20
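Also: peptides expressed intracellularly from a pBAD plasmid library in pooled LB shake-flask culture, induced with 0.3% L-arabinose, DNA abundance read by NGS, three biological replicates, DESeq2 with apeglm shrinkage.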

Row | Sequence | shrunken log2 fold change
1 | RRIRNRPPRLPRPRPRPAHTPRP | 0.121
2 | RRIRYRPPRLPRPRPRPNWRPRP | 0.326
3 | RRIRVRPPRLPRPRPRPLTNPRP | -0.447
4 | RRIRSRPPRLPRPRPRPIRCPRP | 0.00778
5 | RRIRARPPRLPRPRPRPIYTPRP | -0.387
6 | RRIRVRPPRLPRPRPRPIAKPRP | 0.391
7 | RRIRGRPPRLPRPRPRPDEHPRP | 1.5
8 | RRIRDRPPRLPRPRPRPFFHPRP | 0.119
9 | RRIRTRPPRLPRPRPRPFWCPRP | -0.111
10 | RRIRLRPPRLPRPRPRPVSKPRP | -0.181
11 | RRIRERPPRLPRPRPRPGAAPRP | 1.82
12 | RRIRYRPPRLPRPRPRPYDFPRP | -0.138
13 | RRIRIRPPRLPRPRPRPNKQPRP | -0.525
14 | RRIRRRPPRLPRPRPRPLVNPRP | 0.0359
15 | RRIRGRPPRLPRPRPRPFFKPRP | 0.186
16 | RRIRGRPPRLPRPRPRPWEHPRP | -0.000921
17 | RRIRLRPPRLPRPRPRPLYMPRP | -0.763
18 | RRIRQRPPRLPRPRPRPRLWPRP | 0.504
19 | RRIRDRPPRLPRPRPRPIIFPRP | -0.00292
20 | RRIRDRPPRLPRPRPRPHAGPRP | 0.0575
21 | RRIRYRPPRLPRPRPRPQRHPRP | -0.48
22 | RRIRMRPPRLPRPRPRPAGVPRP | 0.688
23 | RRIRERPPRLPRPRPRPIPHPRP | -0.19
24 | RRIRQRPPRLPRPRPRPIIWPRP | 0.0173
25 | RRIRMRPPRLPRPRPRPYDFPRP | -0.00149

Row | Sequence | shrunken log2 fold change
26 | RRIRTRPPRLPRPRPRPSNLPRP | -0.97
27 | RRIRLRPPRLPRPRPRPMYDPRP | -0.787
28 | RRIRRRPPRLPRPRPRPFESPRP | -0.0115
29 | RRIRCRPPRLPRPRPRPHHCPRP | 0.00372
30 | RRIRMRPPRLPRPRPRPRVAPRP | 0.699
31 | RRIRFRPPRLPRPRPRPMAHPRP | 0.0587
32 | RRIRMRPPRLPRPRPRPAHWPRP | 0.792
33 | RRIRCRPPRLPRPRPRPNYEPRP | -0.442
34 | RRIRYRPPRLPRPRPRPWKDPRP | -0.0122
35 | RRIRGRPPRLPRPRPRPIWLPRP | 0.159
36 | RRIRQRPPRLPRPRPRPEPQPRP | 0.00762
37 | RRIRHRPPRLPRPRPRPIMQPRP | -0.228
38 | RRIRGRPPRLPRPRPRPLWTPRP | 0.472
39 | RRIRARPPRLPRPRPRPNRIPRP | -0.215
40 | RRIRGRPPRLPRPRPRPIRLPRP | -0.0112
41 | RRIRSRPPRLPRPRPRPHCWPRP | -0.0424
42 | RRIRQRPPRLPRPRPRPNSQPRP | 0.229
43 | RRIRFRPPRLPRPRPRPTALPRP | 0.0145
44 | RRIRTRPPRLPRPRPRPFTLPRP | -0.312
45 | RRIRSRPPRLPRPRPRPESEPRP | 0.0793
46 | RRIRSRPPRLPRPRPRPEEIPRP | -0.00908
47 | RRIRRRPPRLPRPRPRPYDCPRP | -0.113
48 | RRIRERPPRLPRPRPRPTCEPRP | -0.122
49 | RRIRWRPPRLPRPRPRPKFHPRP | -0.249
50 | RRIRARPPRLPRPRPRPSNWPRP | 0.253

Row | Sequence | shrunken log2 fold change
51 | RRIRERPPRLPRPRPRPCNYPRP | -0.746
52 | RRIRHRPPRLPRPRPRPEYQPRP | -0.3
53 | RRIRMRPPRLPRPRPRPNSFPRP | -0.298
54 | RRIRMRPPRLPRPRPRPVHQPRP | -0.112
55 | RRIRVRPPRLPRPRPRPEFVPRP | -0.262
56 | RRIRYRPPRLPRPRPRPDVTPRP | -0.00733
57 | RRIRWRPPRLPRPRPRPWAEPRP | 0.267
58 | RRIRWRPPRLPRPRPRPACVPRP | 0.347
59 | RRIRIRPPRLPRPRPRPEDWPRP | 0.0775
60 | RRIRRRPPRLPRPRPRPALGPRP | 0.269
61 | RRIRNRPPRLPRPRPRPVHHPRP | -2.09
62 | RRIRKRPPRLPRPRPRPCWMPRP | 0.446
63 | RRIRHRPPRLPRPRPRPGLIPRP | -0.234
64 | RRIRPRPPRLPRPRPRPIGEPRP | -0.0647
65 | RRIRIRPPRLPRPRPRPVVNPRP | -0.356
66 | RRIRPRPPRLPRPRPRPDQGPRP | -0.0018
67 | RRIRWRPPRLPRPRPRPQAHPRP | 0.00175
68 | RRIRVRPPRLPRPRPRPGMQPRP | 0.116
69 | RRIRTRPPRLPRPRPRPKPHPRP | 0.0899
70 | RRIRNRPPRLPRPRPRPRAIPRP | 0.064
71 | RRIRVRPPRLPRPRPRPVKVPRP | 0.0348
72 | RRIRCRPPRLPRPRPRPIYMPRP | -1.29
73 | RRIRSRPPRLPRPRPRPRTFPRP | 0.00214
74 | RRIRWRPPRLPRPRPRPQIVPRP | 0.0235
75 | RRIRWRPPRLPRPRPRPHIGPRP | -0.079
